Laboratory results from the DeepSol protein solubility set.

assay: soluble on expression in E. coli; label from the status in PepcDB or PDB records

Row | Sequence | soluble on expression in E. coli
1 | GSVVIVGRIILSGSGSITAYSQQTRGLLGCIITSLTGRDKNQVEGEVQVVSTATQSFLATCVNGVCWTVYHGAGSKTLAGPKGPITQMYTNVDQDLVGWQAPPGARSLTPCTCGSSDLYLVTRHADVIPVRRRGDSRGSLLSPRPVSYLKGSSGGPLLCPSGHAVGIFRAAVCTRGVAKAVDFVPVESMETTMRSPVFTDNSSPPAVPQSFQVAHLHAPTGSGKSTKVPAAYAAQGYKVLVLNPSVAATLGFGAYMSKAHGIDPNIRTGVRTITTGAPVTYSTYGKFLADGGCSGGAYDIIICDECHSTDSTTILGIGTVLDQAETAGARLVVLATATPPGSVTVPHPNIEEVALSNTGEIPFYGKAIPIEAIRGGRHLIFCHSKKKCDELAAKLSGLGINAVAYYRGLDVSVIPTIGDVVVVATDALMTGYTGDFDSVIDCNTCVTQTVDFSLDPTFTIETTTVPQDAVSRSQRRGRTGRGRRGIYRFVTPGERPSGMFDSSVLCECYDAGCAWYELTPAETSVRLRAYLNTPGLPVCQDHLEFWESVFTGLTHIDAHFLSQTKQAGDNFPYLVAYQATVCARAQAPPPSWDQMWKCLIRLKPTLHGPTPLLYRLGAVQNEVTLTHPITKYIMACMSADLEVVT | soluble
2 | MAKKVAAQIKLQLPAGKATPAPPVGPALGQHGVNIMEFCKRFNAETADKAGMILPVVITVYEDKSFTFIIKTPPASFLLKKAAGIEKGSSEPKRKIVGKVTRKQIEEIAKTKMPDLNANSLEAAMKIIEGTAKSMGIEVVD | soluble
3 | MGSDKIHHHHHHVGFLDGLMGGKQAPLVGLDISSSSVKLVELGQSASGQYVLERFATESFERGWIADGQIEKFDEVADAVRRVVSKSGTRSKRVAMAMPQSAVITKKIMLPAGLRDEELELQVESEANQYIPFSLDEVSLDFCVVGPSPSSVGDVEVLIAASRKDRVQDRQGLAEAAGLKPVVLDIESHASRLAMMRIVSALPNEGRDALVALFEIGAETTSLKVLRDEELLYDRDQAFGGSQLTQMISRQYGFSFEEAEQKKLASDLPEDYESSLLVPFVDSLAQEIGRALQYFFTSTPHHKVHYVMLGGGTATLPGLKERVTELTGFASMVVNPFEGMRLGSAVRESKLRREAPAYLTACGLAMRRFL | not soluble
4 | MGSDKIHHHHHHMIDFHVHTTFSDSTMTPAVAVRHAKMAGYRAVALTDHADHANMDLILRQTLPLARKYSLYAGIEVFAGVELTHVPPALIPEAVREARAMGAQLVLVHGETISDAVETGTNLAAIEGGVDILAHPGLVSDEDAAYAAERGVRFEITTRPGHALTNGHVAMAARRHGVRCVINNDAHHSRDFVNPDHRLAVALGAGLTTAEVTAAEAESRTLLGRLLREVR | not soluble
5 | MTIKIALLGFGTVAKGIPYLLKENQHKLLSLEGEDIVIDKVLVRDNESRQRFINQGFTYNFVTEINTILQDSQIDIVVELMGGIEPAKTYLSQALGFGKHIVTANKDLIALHGKELMDLADARGLALFYEGAVAGGIPILRTLSHSFASDKMTRLLGILNGTSNFMLTKMFEEGW | not soluble
6 | MSLCIIGSGPGGLCMARALKRQGLDYEQFERHGEVGGVWDINNPGTPMYQSAHFISSRDQSGFIDYPMPAHFPDYPSNRQIFEYVRSFAVAFDLYDRIRFNTAVKDVEKEQDGRWLVTLASGERRRYRAVVCATGCNWDPNMPEVKGQFEGTVRHSVTYKNPDEFKGKRVMVIGADNSGADIACDAAKHADKAFISMRRGYHLIPKHLFGMPVDEFGEKGPQLPMWLARPVFQTILRVINGDTRRFGLPRPDHKLFESHPLLNTQLLHYLQHGDIQVKPDVSHYEGQHVVFKDGTREPLDLVLYATGYKWSCPYAAKYFEWQGGRPRLYLSIFSREHHNLFGIGYVETNSSAYKLFDSEAHAVACYLRDQLHQKTQASHFDQLIATDDPDLSGGIKFVKSQRHEVYLEAHALKKYLRKLFHSEGHHHHHH | not soluble
7 | MSNFISPVYEIKSIPIEKISPNDYNPNSVAPPEMKLLYDSIKSDGYTMPIVCYYDKEEDRYSIVDGFHRYRIMLDYSDIYERESGRLPVSVIDKSLDYRMASTIRHNRARGSHDVDLMSQIVKDLHECGRSDNWIAKHLGMDKDEILRLKQITGLASLFKDHEFNQSWEPEELLNE | soluble
8 | MGHHHHHHSHMHTPEVASPSPGDRCREKSSPRPQTRFPSWHRVGDGWRVSIGTARSGCCQVGPCQGSSPLSTLCLAVPAPRYSNMACTQQSGGTTMVTADAPRLCLVNVAEQNGRLDPEEGPLSWHLSLAT | not soluble
9 | MTVEASRPARSRQAVIFCYNAGYLPFALHAAERIDRLTPGRAFDICICHGEEPILVPDSLSRLDVRLIRIDTTGVFTGLRLDPGRTHDVYLRLALPQALAADYDRILYLDADIFVQGGDFTALLGLDLGNHPLGAVRDNIQWRTPERRAEQFRRLGIPAAPYFNAGLLLMDVARYNEMNLLDRCVELGRREASRMIRHDQNLYNAVLRGDWAELSPMWNWQYSWSARLFEAMRYPHIVHFIGTLKPWADRKGHYSPRFAQSYDRFIADHFPDRPRNPVSGGLSPDSRMMRRMLVKHFLSSSKLARYLDRFPSDLTVIRLEHHHHHH | not soluble
10 | MQAWIQQGLHGMQMGGRVGNYDQTFVVYGPVFLPNATQSKISEINYGGKILLPSSALNLLMQYNIPMPMLFKLTNMAVQRVTHCGVLEFSAPEGQAILPLWMMQQLGLDDGDTIRIESATLPKATFAKLKPMSLEFLNITNPKAVLEVELRKYACLTKNDRIPTSYAGQTLEFLVVDLKPANSVCIIECDVNLDFDPPEGYVEQPRQVTPAVTAKPPAPDASAFIGAGQKAGGSGGTGQNATSVFGGAGRRLDGKKKPSSSVSLSDGTGVSTSNAAPVANDLPAIPPVVVNEDYKPGRVSFLRYDYKRVDVLEKELREKEASKAGQPSNVFRGGNRTLRGAR | not soluble
11 | MGSDKIHHHHHHMNQIIPTSANGCIPNVYFMGRWTTQTVESKPAMYTTNLGAQILFEVQNADYFTLEAVINPLSAPQTLSIYIDDELHLTPLTRSKNDFKLSSNQSHIVRIYFTGNTDQDEIWLGNDGLTIKDITIASGTLAAIKPAGPLVAFIGDSITAGCWVRSKAPSIGYGADLNYAAQLSRALDWEDYRIAYSAAGIIRYGTGGVPPAGKFVKYVNFSVKAPRINPDLVLINLGTNDARYEDDVFEMYFVWFINEVKKQFPHARIIIITPFNQAHSHVIKNVAKALKIELIPTLDWVIETNDEVHPNVEGSKAISDHLVAWFTEPQNRLQSE | not soluble
12 | MASSINGRKPSEIFKAQALLYKHIYAFIDSMSLKWAVEMNIPNIIQNHGKPISLSNLVSILQVPSSKIGNVRRLMRYLAHNGFFEIITKEEESYALTVASELLVRGSDLCLAPMVECVLDPTLSGSYHELKKWIYEEDLTLFGVTLGSGFWDFLDKNPEYNTSFNDAMASDSKLINLALRDCDFVFDGLESIVDVGGGTGTTAKIICETFPKLKCIVFDRPQVVENLSGSNNLTYVGGDMFTSIPNADAVLLKYILHNWTDKDCLRILKKCKEAVTNDGKRGKVTIIDMVIDKKKDENQVTQIKLLMDVNMACLNGKERNEEEWKKLFIEAGFQHYKISPLTGFLSLIEIYP | soluble
13 | MGLQFAYLPVEIGQVSDEKCSAFHQLMATLPGPVLAFCNSGNRARALYSRDVGTTTTPAETISAACDWEHEAAAVTEAESEAAGAAAVSAASSRDEAAGKSIPVTPACNWDNAFDIVVVGGGSAGLGVTASLLRRRSSLRIAIIEPNDKHYYQPAWTLVGGGAYAVDQTVRNTADVIPHGAEWIKAEVSGFSPNDNLVHLADGRTIGYQQLIVCPGIRLAWEKIEGIQETLGKNGVTSNYLFDLAPYTWSLTQQLKGGKALFTQPPMPIKCAGAPQKAMYLSCDYWQRQGVLDKIEVEFDSAGAVLFGVADFVPPLMEYVRKYHANLVFNSNLVKVNGPEKIATFEIKNEAGEVTRVDKPFDMLHVTPPQAAPDFLRDSPLADASGYCEVNPKTLQHTRFANIFSLGDACSSPNTKTAAAVRKQIVIVAENLLAAKDGREFHAVYDGYGACPLTVENGKVVLAEFGFGGKLLPTFPLNPAVARKLYWWFKVKLFPWLYWEGLEHHHHHH | not soluble
14 | MIISEFDRNNPVLKDQLSDLLRLTWPEEYGDSSAEEVEEMMNPERIAVAAVDQDELVGFIGAIPQYGITGWELHPLVVESSRRKNQIGTRLVNYLEKEVASRGGITIYLGTDDLDHGTTLSQTDLYEHTFDKVASIQNLREHPYEFYEKLGYKIVGVLPNANGWDKPDIWMAKTIIPRPD | soluble
15 | MTKNKSVARDERYYKAYLESRTISRRGLFRGLLKGVQPSTTTAPSDITAPPPLRPPYAIDEPHFQQSCTGCGVCVAACEENLIVMVNQRPALNFSTPYFSTPYCSRCQACSTACQTGALSSAEFHIAARPSVKNICQNTYIYCDSCADYCEKQALIWQANQPPTLVTELCDGCGECVFRCPARILEMQI | not soluble
16 | DDGSNEDTKQALSALSEQGLIKLISLSENQGKGGAVMAGLHQAHQLGFTHTIQIDADGQHDLEALPKLLSASETKPDNLISGQPIYDESVPKARLYGRYATHIWVWIETLSLSIKDSMCGFRAYPVAKTVAVLNKYNIGKRMDFDIEILVRMYWEGVDIDFVPTRVIYPEGGISHFDALWDNVKISWMHTRLFFGMLPRIPSLLARKRRHTDDSNAHWSKRKEQGTILGIKTLLAVYRLFGRKAFDLILKLVMRYYHFTGKSAREASEIYLQNLQRYAAQQNIALPKQLDSYHHLLSFGRTMLDKLAAWQGDFNVDNLTIHGQHHFEEMAQKKQGVLILGSHLGNIELCRALGRRHSHVKINALVFTQHAEQFNAVMKAVNPNSELNLIQVSSMGPDTAILLQQKIEQGEWVVIVGDRTSTSKENRVVWADFLGKPAPFPQGP | not soluble
17 | MTLPQTMKAAVVHAYGAPLRIEEVKVPLPGPGQVLVKIEASGVCHTDLHAAEGDWPVKPPLPFIPGHEGVGYVAAVGSGVTRVKEGDRVGIPWLYTACGCCEHCLTGWETLCESQQNTGYSVNGGYAEYVLADPNYVGILPKNVEFAEIAPILCAGVTVYKGLKQTNARPGQWVAISGIGGLGHVAVQYARAMGLHVAAIDIDDAKLELARKLGASLTVNARQEDPVEAIQRDIGGAHGVLVTAVSNSAFGQAIGMARRGGTIALVGLPPGDFPTPIFDVVLKGLHIAGSIVGTRADLQEALDFAGEGLVKATIHPGKLDDINQILDQMRAGQIEGRIVLEM | soluble
18 | MSNQQALVIFSGGQDSTTCLIQAIQTYGRENVQAITFQYGQRHAVELERARWIAQDLGVKQTVLDLSLMRQITHNALMDDTAAIETAENGVPNTFVDGRNALFLLYAAIYAKGQGIRHIIAGVCETDFSGYPDCRDVFVKSMNVTLNLAMDYDFQIHTPLMYLTKAQTWALADEMGVLDYIREQTHTCYNGIVGGCRECPSCILRERGLAEYLESKKAV | not soluble
19 | MSLITLTTDFGLKGPYVGEMKVAMLRINPNAKIVDVTHSVTRHSILEGSFVMEQVVKYSPKGTVHVGVIDPGVGTERRAIVIEGDQYLVVPDNGLATLPLKHIKVKSVYEIIPDKIRKFTGWEISSTFHGRDIFGPAGALIEKGIHPEEFGREIPVDSIVKLNVEPRKEGDVWILKVIYIDDFGNVILNLENYEKPRTVELLDFNLRLPYLETYGLVEKGEMLALPGSHDYLEIAVNMGSAAERLNVKVGDELRVRLLEGGSHHHHHH | soluble
20 | MRITDVRTAVVEANYDWTFVRIYTDEGLTGLGESFLAPGLTGIIRDLKPLLVGQDPLDVDRLFSRMRWAASGAGSVAGLVYNAISGIEAALWDLAGKHYGVPVFRLLGGRHRDRVRVYADCHAGEALEALSSVMIPRRPRWLSPAGAPPPAGDPVHGRAFGLEEPGEAFTPEMYAARAREVAAMGFTALKFDLDVPNPHTLDPHSGTLTHAEIRHMVSLVEAVREAVGDGVDIAFDLHWRYNVSDAVRLACELEPYGLMWLEDPVPPENVEALRRVTRSTRTPIASGENLYLRHGFREALERGALDIAAPDLQKCGGLLEGRRIADMADAHYVAVAPHCIASPIGTVAAAHVAAAVPNFLALEWHGMSVPFWEEMAAGFDGPVIRDGYIEVPEAPGLGVELNEEVARRYAREGEPFF | soluble
